Key:
[1] = target: T1, CDK4/cyclin D1 complex (UniProt P11802 1-303; P24385 1-295); assay: cell-based or functional assay
[2] = target: CDK2/cyclin E complex (UniProt P24941 1-298; P24864 16-410); assay: cell-based or functional assay
[3] = target: CDK2/cyclin A complex (UniProt P24941 1-298; P20248 1-432); assay: cell-based or functional assay
[4] = target: CDC2/cyclin B complex (UniProt P06493 1-297; P14635 1-433); assay: cell-based or functional assay
[5] = target: T1, CDK4/cyclin D1 complex; assay: in vitro kinase inhibition assay (32P incorporation into GST-Rb)
Method: Partial purification of CDK4/cyclin D1 was achieved by a 20–40% ammonium sulfate preparation of the cell lysate and was used in the assays. […] These assays were carried out in 96 well plates (Nunc, Naperville, Ill.) and monitored by γ-^32P-ATP incorporation.
The concentrations of GST-Rb and histone H1 were 4.4 mM and 19 mM, respectively, and the concentration of ATP was 50–60 mM. The reaction mixtures contained 50 mM Tris-Cl pH 7.5, 10 mM MgCl_2, and 1 mM DTT in a total volume of 50 or 100 µl. After incubation at 30° C. for 10–20 minutes, the reaction was terminated by the addition of a stop solution containing EDTA. The phosphorylated substrates were captured either by GST-Sepharose or TCA precipitation and then monitored for radioactivity (Microplate Scintillation Counter, Packard, Meriden, Conn.).

T1 sequence (P11802 whole entry, chain 1 of 2): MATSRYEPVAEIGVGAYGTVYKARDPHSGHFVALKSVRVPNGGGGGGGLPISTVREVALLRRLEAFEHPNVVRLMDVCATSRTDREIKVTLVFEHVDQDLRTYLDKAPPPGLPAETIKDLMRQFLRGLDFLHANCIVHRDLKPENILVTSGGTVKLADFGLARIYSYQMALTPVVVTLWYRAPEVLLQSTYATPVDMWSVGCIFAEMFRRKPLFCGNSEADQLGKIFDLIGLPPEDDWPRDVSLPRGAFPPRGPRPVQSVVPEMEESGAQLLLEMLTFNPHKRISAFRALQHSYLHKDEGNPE
T1 sequence (P24385 whole entry, chain 2 of 2): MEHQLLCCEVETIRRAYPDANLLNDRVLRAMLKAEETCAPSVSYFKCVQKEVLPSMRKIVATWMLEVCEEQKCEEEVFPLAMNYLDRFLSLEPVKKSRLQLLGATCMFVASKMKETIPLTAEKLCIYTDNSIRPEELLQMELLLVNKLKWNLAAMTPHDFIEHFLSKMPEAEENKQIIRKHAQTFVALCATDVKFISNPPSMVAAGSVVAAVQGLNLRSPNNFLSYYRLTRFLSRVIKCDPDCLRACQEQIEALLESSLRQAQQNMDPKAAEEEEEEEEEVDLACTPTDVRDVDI
CDC2/cyclin B complex, sequence (P06493 whole entry, chain 1 of 2): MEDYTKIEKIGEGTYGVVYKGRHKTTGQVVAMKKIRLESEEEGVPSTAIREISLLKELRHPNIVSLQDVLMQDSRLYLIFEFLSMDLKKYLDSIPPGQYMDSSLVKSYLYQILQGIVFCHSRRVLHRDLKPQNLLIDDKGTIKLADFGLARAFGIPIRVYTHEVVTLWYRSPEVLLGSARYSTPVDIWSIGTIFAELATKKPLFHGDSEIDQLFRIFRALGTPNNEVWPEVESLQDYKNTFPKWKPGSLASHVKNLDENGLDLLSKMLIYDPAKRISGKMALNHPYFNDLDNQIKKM
CDC2/cyclin B complex, sequence (P14635 whole entry, chain 2 of 2): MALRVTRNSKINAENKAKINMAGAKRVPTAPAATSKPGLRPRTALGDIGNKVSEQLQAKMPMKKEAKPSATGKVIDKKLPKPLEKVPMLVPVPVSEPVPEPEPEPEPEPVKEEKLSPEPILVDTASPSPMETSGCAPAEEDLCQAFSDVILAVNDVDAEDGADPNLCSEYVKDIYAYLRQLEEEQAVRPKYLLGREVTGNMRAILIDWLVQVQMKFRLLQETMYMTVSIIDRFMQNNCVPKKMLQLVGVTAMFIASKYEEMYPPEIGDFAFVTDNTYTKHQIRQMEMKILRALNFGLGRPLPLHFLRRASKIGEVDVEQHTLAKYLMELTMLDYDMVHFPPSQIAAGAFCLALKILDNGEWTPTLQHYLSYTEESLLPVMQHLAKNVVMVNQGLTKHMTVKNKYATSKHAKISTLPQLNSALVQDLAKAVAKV

B1: human p16 (other)
chain: MEPAAGSSMEPSADWLATAAARGRVEEVRALLEAGALPNAPNSYGRRPIQVMMMGSARVAELLLLHGAEPNCADPATLTRPVHDAAREGFLDTLVVLHRAGARLDVRDAWGRLPVDLAEELGHRDVARYLRAAAGGTRGSNHARIDAAEGPSDIPD
notes: also called p16INK4
IC50, in vitro kinase assay [1]: 0.25 µM
IC50, in vitro kinase assay [2]: > 0.5 µM
IC50, in vitro kinase assay [3]: > 0.5 µM
IC50, in vitro kinase assay [4]: > 0.5 µM
Ki [5]: 0.075 µM

Source: patent publication US6420345 (CELL GENESYS, dated 2002)
